Source: the supplement of paper PMC7125110
± gives the standard error. For some assays here: Fewer inactive variants are shown than the library holds.

B1: glmS ribozyme (parent)
chain: AUAAAAGCGCCAGAACUACAGAAAUGUAGUUGACGAGGAGGAGGUUUAUCGAAUUUUCGGCGGAUGCCUCCAAA

Experiments:
Conditions in all cases: with glucosamine-6-phosphate
[1] = variants of: B1; test: kcat; higher = faster cleavage; RNA array
In short: (§1)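 kobs was derived by fitting per-tile medians to one- or two-exponential decays after normalising signals to baseline and to non-cleaving reference variants. Those signals came from barcoded ribozyme variants transcribed in situ by E. coli RNA polymerase on sequenced MiSeq chips, followed through a hybridised Cy3 probe at 37 °C and imaged over ~14 h. Glucosamine-6-phosphate (40 μM to 10 mM) in HEPES/KCl/Mg(OAc)2 buffer was flowed in. Weighted Michaelis–Menten fits across concentrations then gave kcat and KM.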

[2] = variants of: B1; test: self-cleavage kobs at 640 uM GlcN6P; higher = faster cleavage; RNA array
In short: as §1

[3] = variants of: B1; test: self-cleavage kobs at 2500 uM GlcN6P; higher = faster cleavage; RNA array
In short: as §1

[4] = variants of: B1; test: self-cleavage kobs at 10000 uM GlcN6P; higher = faster cleavage; RNA array
In short: as §1

[5] = variants of: B1; test: KM; higher = weaker cofactor use; RNA array
In short: as §1

[6] = variants of: B1; test: self-cleavage kobs at 40 uM GlcN6P; higher = faster cleavage; RNA array
In short: as §1

[7] = variants of: B1; test: self-cleavage kobs at 160 uM GlcN6P; higher = faster cleavage; RNA array
In short: as §1

Variant | kcat [1] [s⁻¹] | self-cleavage kobs at 640 uM GlcN6P [2] [s⁻¹] | self-cleavage kobs at 2500 uM GlcN6P [3] [s⁻¹] | self-cleavage kobs at 10000 uM GlcN6P [4] [s⁻¹] | KM [5] [µM] | self-cleavage kobs at 40 uM GlcN6P [6] [s⁻¹] | self-cleavage kobs at 160 uM GlcN6P [7] [s⁻¹]
C16A G40U | 9.3e-05 ± 2.3e-05 | 4.49e-05 ± 1.2e-05 | 0.000122 ± 1.6e-05 | 7.36e-05 ± 1.2e-05 |  |  | 
G40C U47A | 0.00182 ± 0.0003 | 0.000511 ± 0.0001 | 0.00128 ± 0.00024 | 0.0017 ± 0.00019 | 1170 ± 310 | 7.98e-05 ± 1.1e-05 | 0.000192 ± 3.4e-05
A12C A33C | 0.000196 ± 1.6e-05 | 3.98e-05 ± 9.4e-06 | 8.11e-05 ± 1.8e-05 | 0.000156 ± 1.8e-05 | 2860 ± 540 |  | 
A12U U65A | 0.0089 ± 0.0024 | 0.00176 ± 0.00027 | 0.00391 ± 0.00071 | 0.00799 ± 0.0012 | 2460 ± 840 | 0.000192 ± 2.4e-05 | 0.000483 ± 5.8e-05
G13C U56A | 0.000106 ± 6.7e-06 |  | 4.38e-05 ± 7.3e-06 | 7.93e-05 ± 9.5e-06 | 3410 ± 530 |  | 
A33U U56A | 3.49e-05 ± 1.6e-05 |  |  |  |  |  | 
U47A C71A | 0.00195 ± 0.00046 | 0.00117 ± 0.00028 | 0.00138 ± 0.00038 | 0.00153 ± 0.00055 | 1020 ± 320 | 6.97e-05 ± 1.4e-05 | 0.000253 ± 6.8e-05
A33U A53G C70U | 0.000178 ± 1.5e-05 |  |  | 5.75e-05 ± 9.2e-06 |  |  | 
U45G C71G | 0.000564 ± 5.3e-05 | 0.000112 ± 1.2e-05 | 0.000322 ± 5.2e-05 | 0.000432 ± 6.3e-05 | 2510 ± 370 |  | 3.29e-05 ± 1.3e-05
C11U C68U | 0.000418 ± 5.2e-05 | 0.000135 ± 1.7e-05 | 0.000329 ± 3.1e-05 | 0.00036 ± 3.9e-05 | 1070 ± 290 |  | 6.59e-05 ± 1.1e-05
G13U C67G | < 1e-05 |  |  |  |  | < 1e-05 | 
A36U U47G G51U | < 1e-05 |  |  | < 1e-05 |  |  | 
U46G C70G | 0.00028 ± 2.1e-05 | 0.000265 ± 3.3e-05 | 0.000263 ± 3.4e-05 | 0.000258 ± 2.6e-05 | 192 ± 44 | 4.54e-05 ± 1.1e-05 | 0.000122 ± 1.7e-05
C50A G59U | < 1e-05 | < 1e-05 |  | < 1e-05 | 181 ± 24 | < 1e-05 | < 1e-05
U54A U65G C67U | 0.00302 ± 0.00027 | 0.000434 ± 9.2e-05 |  | 0.00217 ± 0.00041 | 3900 ± 500 |  | 0.000109 ± 3.7e-05
